Experimental data from paper PMC7246340, “A Novel Anti-Kv10.1 Nanobody Fused to Single-Chain TRAIL Enhances Apoptosis Induction in Cancer Cells” (Frontiers in Pharmacology, 2020).

B1: h1x antigen (E3-S5-pore segment fused to the C-terminal coiled coil domain of Kv10.1 and to thioredoxin) (domain or fragment, human)
chain: IGDYEIFDEDTKTIRNNSWLYQLAMDIGTPYQFNGSGSGKWEGGPSKNSVYISSLYFTMTSLTSVGFGNIAPSTDIEK
notes: Kv10.1 voltage-gated potassium channel, E3 segment (extracellular linker between S5 and S6 transmembrane segments, extending to the pore loop); numbers count on: Homo sapiens Kv10.1, isoform 1 (UniProt O95259-2); Kv10.1 voltage-gated potassium channel, C-terminal tetramerizing coiled-coil (C-terminal assembly domain); The coiled coil was added with the aim to induce tetramerization; the …

Assays:
VHH-D9-scTRAIL = biological target: T1, VHH-D9-scTRAIL (llama (Lama glama) | ); test: ELISA; plates coated with 500 ng h1x or h2x, blocked with 3% BSA; Ab-scTRAIL constructs (CHO-K1 supernatants, not further purified) incubated 2 h at different concentrations; detected with the anti-TRAIL conjugate of the Quantikine TRAIL ELISA kit; apparent affinities; settings: one partner purified
T1 construct: nanobody D9, as the VHH of m4 without its His tag; TRAIL (Tumor Necrosis Factor-Related Apoptosis-Inducing Ligand) fragment, first of three in single-chain TRAIL; short peptide linker between TRAIL fragments; TRAIL fragment, second of three in single-chain TRAIL; TRAIL fragment, third of three in single-chain TRAIL; a linker between VHH and scTRAIL is not described; Vector tags were eliminated by …

[1] = biological target: B1
[2] = biological target: B1; test: ELISA; plates coated overnight with 500 ng h1x in TBS, blocked with 2% BSA; VHHs (E. coli culture supernatants) incubated 2 h at different concentrations; detected by mouse anti-His antibody and peroxidase-conjugated anti-mouse; apparent affinities; settings: one partner purified
[3] = biological target: B1; test: as above; settings: one partner purified; remark: listed apart in the source
[4] = biological target: B1; test: SPR; recombinant antigen h1x immobilised on the chip; serial dilution of nanobody as analyte (D9 3.12 nM to 200 nM, C4 25 nM to 400 nM); 1:1 Langmuir model; settings: both partners purified

Binder | Kd [3] [nM] | other results
B1 |  | Kd (VHH-D9-scTRAIL): 0.029 nM
G10 (VHH) VHH: EVQLVESGGGLVQPGGSLRLSCTAAGRTFSTYILAWFRQAPGEERKFVAGITGNGETGYSNSVKGRFTIARDNAKNTVFLQMNNLKPEDTAVYYCAAHSRSTYYYKGPDLYDYGQGTQVTVSS |  | binding result [1]: binds
anti-Kv10.1 nanobody VHH-C4 (VHH, Short CDR3 (six residues); His tag comes from the phage display vector; The preparation used for SPR is not described; source: E. coli TG1TR, culture supernatants (ELISA)) VHH: RLLLVQSGGGLVQAGGSLRLSCAASGRTFSNYAMYWFRQTPGKDREFVASISYSGTFTDYAGSVKGRFTISRDNAKNTLYLQMNSLRPEDTAVYYCSLDRHYWGPGTQVTVSS | 87 | Kd [2]: 81 nM; Kd [4]: 1800 nM
anti-Kv10.1 nanobody VHH-D9 (VHH, a model in PDB format is also in the Supplementary Information; Short CDR3 (six residues); His tag comes from the phage display vector; The preparation used for SPR is not described; source: E. coli TG1TR, culture supernatants (ELISA)) VHH: QVQLVQSGGGLVQAGGSLRLSCAASGRTFSNYAMYWFRQTPGKDREFVASISYSGTFTDYAGSVKGRFTISRDNAKNRLYLQMNSLKPEDTAVYYCSLDRLYWGQGTQVTVSS | 11 | Kd [4]: 78 nM
anti-Kv10.1 nanobody F5 (VHH, From a phage display library of a llama immunised with h1x; His tag comes from the phage display vector; source: E. coli TG1TR, culture supernatants (ELISA)) VHH: QVQLVQSGGGLVQAGGSLRLSCAASGRTFENYIMAWFRQAPGEERKFVAAITGNGGTGYADSVKGRFTISRDNAKNTVLLQMNSLKPEDTAVYYCAAHSRSSYYYKGPDLYDYWGQGTQVTVSS | 470 | 
anti-Kv10.1 nanobody G1 (VHH, From a phage display library of a llama immunised with h1x; His tag comes from the phage display vector; source: E. coli TG1TR, culture supernatants (ELISA)) VHH: VQLVEVWGRIGAKRGGSLRLSCTAAGRTFSSYILAWFRQAPGEERKFVAGITGNGETGYSNSVKGRFTISRDNAKNTVLLQMNNLKPEDTAVYYCAAHSRSIYYYRGPDLYDYWGQGTQVTVSS | 431 | 
E12 (VHH) VHH: EVQLVESGGGLVQAGGSLRLSCTASGRTFSSYIFAWFRQAPGEERKFVAGITGNGGTGYSNSVKGRFTISRDNAKNTVLLQMNNLKPDDTAVYYCAAHSRSSYYYRGPDLYDYWGQGTQVTVSS |  | binding result [1]: binds
anti-Kv10.1 nanobody A12 (VHH, From a phage display library of a llama immunised with h1x; His tag comes from the phage display vector; source: E. coli TG1TR, culture supernatants (ELISA)) VHH: RCKLQESGGGLVQAGGSLRLSCTAAGRTFSSYILAWFRQAPGEERKFVAGITGNGETGYSNSVKGRFTISRDNAKNTVLLQMNNLKPEDTAVYYCAAHSRSTYYYRGPDLYDYWGQGTQVTVSS | 343 | 
anti-Kv10.1 nanobody G4 (VHH, From a phage display library of a llama immunised with h1x; His tag comes from the phage display vector; source: E. coli TG1TR, culture supernatants (ELISA)) VHH: QVQLVQSGGGLVQAGGSRRLSCTASGRTFSSYILGWFRQAPGEERKFVAAITGNGGTGYADSVKGRFTISRDNAKNTVLLQMNSLKPEDTAVYYCAAHSRSSYYYRGPDLYDYWGQGTQVTVSS | 943 | 
anti-Kv10.1 nanobody F6 (VHH, From a phage display library of a llama immunised with h1x; His tag comes from the phage display vector; source: E. coli TG1TR, culture supernatants (ELISA)) VHH: QVQLVQSGGGLVQAGGSLRLSCTASGRTFGSYILAWFRQTPGEERKFVAGITGNGGTGYSDSVKGRFTISRDNAKNTVLLQMNNLKPEDTAVYYCAAHSRSSYYYKGPDLYDYWGQGTQVTVSS | 177 | 
